In article PMC4454200 (2015):

Target: Myosin-5a (Mus musculus, UniProt Q99104)
Experiment: ATPase activity assay

Chain of Myosin-5a (Q99104 2-1853): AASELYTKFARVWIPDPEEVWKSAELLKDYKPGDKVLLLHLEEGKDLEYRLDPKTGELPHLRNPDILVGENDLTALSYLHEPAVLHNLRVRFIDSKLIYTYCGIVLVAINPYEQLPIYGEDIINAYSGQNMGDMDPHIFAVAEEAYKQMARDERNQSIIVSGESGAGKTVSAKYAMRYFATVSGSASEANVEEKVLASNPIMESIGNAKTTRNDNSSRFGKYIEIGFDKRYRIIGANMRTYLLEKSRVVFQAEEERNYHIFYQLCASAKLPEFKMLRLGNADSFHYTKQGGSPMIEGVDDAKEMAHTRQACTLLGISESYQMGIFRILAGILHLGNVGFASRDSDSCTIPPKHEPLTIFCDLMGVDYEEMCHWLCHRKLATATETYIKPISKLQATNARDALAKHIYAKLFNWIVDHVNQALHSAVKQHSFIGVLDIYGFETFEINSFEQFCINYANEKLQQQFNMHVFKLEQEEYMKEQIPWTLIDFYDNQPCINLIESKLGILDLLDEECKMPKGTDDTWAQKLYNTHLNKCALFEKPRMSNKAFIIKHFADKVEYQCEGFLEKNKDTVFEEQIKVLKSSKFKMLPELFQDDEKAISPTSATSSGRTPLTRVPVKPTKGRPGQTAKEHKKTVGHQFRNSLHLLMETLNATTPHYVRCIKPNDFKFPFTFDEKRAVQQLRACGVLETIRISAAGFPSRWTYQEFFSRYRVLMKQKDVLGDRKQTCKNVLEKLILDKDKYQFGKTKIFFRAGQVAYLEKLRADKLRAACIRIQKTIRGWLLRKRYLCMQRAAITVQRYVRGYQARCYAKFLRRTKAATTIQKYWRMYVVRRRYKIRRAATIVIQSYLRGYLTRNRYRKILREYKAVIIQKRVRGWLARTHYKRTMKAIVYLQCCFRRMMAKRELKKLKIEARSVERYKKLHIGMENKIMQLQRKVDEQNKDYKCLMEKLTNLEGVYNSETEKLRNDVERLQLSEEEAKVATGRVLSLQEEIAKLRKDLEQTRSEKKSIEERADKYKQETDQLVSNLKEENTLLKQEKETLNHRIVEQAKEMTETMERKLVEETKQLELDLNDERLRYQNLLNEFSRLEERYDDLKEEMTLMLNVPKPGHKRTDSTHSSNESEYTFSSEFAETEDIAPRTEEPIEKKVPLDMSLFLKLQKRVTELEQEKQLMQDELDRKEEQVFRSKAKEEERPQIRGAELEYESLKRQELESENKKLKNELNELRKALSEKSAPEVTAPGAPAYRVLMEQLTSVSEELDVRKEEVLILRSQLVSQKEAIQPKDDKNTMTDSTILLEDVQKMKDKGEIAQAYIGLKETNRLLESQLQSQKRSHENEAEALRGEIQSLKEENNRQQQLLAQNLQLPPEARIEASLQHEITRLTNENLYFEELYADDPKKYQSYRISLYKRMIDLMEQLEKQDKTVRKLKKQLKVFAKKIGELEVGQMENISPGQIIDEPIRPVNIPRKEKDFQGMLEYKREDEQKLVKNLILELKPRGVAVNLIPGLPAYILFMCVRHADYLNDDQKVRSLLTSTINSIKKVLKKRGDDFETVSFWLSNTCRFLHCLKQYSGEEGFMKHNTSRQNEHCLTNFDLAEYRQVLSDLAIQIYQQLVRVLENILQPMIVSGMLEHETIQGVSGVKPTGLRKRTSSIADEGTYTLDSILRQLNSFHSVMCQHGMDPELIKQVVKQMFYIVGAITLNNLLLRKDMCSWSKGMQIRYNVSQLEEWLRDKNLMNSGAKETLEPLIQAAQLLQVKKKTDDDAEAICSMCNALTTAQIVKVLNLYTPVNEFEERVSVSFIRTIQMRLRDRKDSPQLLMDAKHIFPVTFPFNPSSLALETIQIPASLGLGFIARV

Binder: RDQPLNSKKKKRLLSFRDVDFEEDSD [Melanophilin GTBDP]
- Kd: 19.8 µM
